Reference: the nanobody polyreactivity screen of Harvey et al. (2022)

test: yeast display, Sf9 membrane polyspecificity reagent, FACS + sequencing; frameworks hold sequencing errors
How it was run: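 Polyreactivity labels are assigned by the sorting gate from which each nanobody was recovered. The gates were low and high (top ~1%), set on anti-HA fluorescence for expression and streptavidin fluorescence for reagent binding. Before sorting, galactose-induced (36–48 hours) yeast display cells were stained for 1 hour at 4 °C with 10% biotinylated, detergent-solubilized Sf9 membrane reagent.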

Row | Sequence | polyreactivity (PSR sort gate)
1 | QVQLVESGGGLVQAGGSLRLSCAASGRIFVHYAMGWYRQAPGKERDLVAAISMSGGNTYYADSVKGRFTISRDNEKNTVYLQMNSLKPEDTAVYYCARAPYYVASGHRRVLRPTYEYWGQGTQLTVSS | low polyreactivity
2 | QVQLVESGGGLVQAGGSLRLSCAASGLTFSIYAMGWYRQAPGKERELVAAISWSGGSTYYADSVKGRFTISRDNAKNTVYLQMNSLKPEDTAVYYCAARVYRPWWRYDYWGQGTQVTVSS | high polyreactivity
3 | QHQLVESGGGLVQAGGSLRLSCAASGRTFYWNAMGWYRQAPGKERELVAGISNGGTTTYYADSVKGRFTISRDNAKNTVYLQMNSLKPEDTAVYYCAADIWYFDYDYWGQGTQVNVSS | high polyreactivity
4 | QVQLVESGGGLVQAGGSLRLSCAASGYIFIFYAMGWYRQAPGKDRELVAAITDSGGSTYYADSVKGRFTISRDNAQNTVYLQKNSLKPEDTAVYYCADPYYFYRDRYRLDYWGQGTQVTVSS | low polyreactivity
5 | QVQLVESGGGLVQAGGSLRLSCAASGLTFPFYTMGWYRQAPGKERELVAAISRRGGSTYYADSVKGRFTISRDNAKNTVYLQLNSLKPEDTAVYYCAADKYSWYDYWGQGTQVTVSS | low polyreactivity
6 | QVQLVESGGGLDQAGGSLRLSCAAAGFIFHLNAMGWYRQAPGKERELLASIRSSGDSTHYADSEKGRFTISRDNAKITVYLQMNSLKPEDTAVFYCNADFYPAGTLTYDYWGQGTQVTVSS | low polyreactivity
7 | QVQLVESGGGVVQAGGSLRLSCAASGSTSYFNVIGWYRPAPGKERELVAAISWSGGSTYADSVKGRFTISRDNAKNTVYLQMNSLKREDTAVYYCNKDYGYVQLRFSGPGYYWGQGTQVTVSS | low polyreactivity
8 | QVQLVESGGGLVQAGGSLRLSCAASGSTFYTNAMGWYRQAPGKERELVAAINRSGGRSYYADSVKGRFTISRDNAKNTVYLQMNSLKQEDTAVYYCAARYPLRISTDTARDYYWGQGTQVTVSS | low polyreactivity
9 | QVQLVESGGGLVQAGGSLRLSCAASGSTFTYYAMGWYRQAPGKERELVAAITWSGVSTYYADSVKGRFTISRDNAKNTVYLQMNSLKPEDTAVYYCANGYSYGWWGGFGYWGQGTQVTVSS | high polyreactivity
10 | QVQLVESGGGLVQAGGSLRLNCAASGRSFQSYAMGWYRTAPGKERELVAAITWSGGDTYYADSVKGRFTISRDNAKNTVYLQMNSLKPEDTAVYYCAKEQGLYSVSPYDYWGQGTQVTVSS | low polyreactivity
11 | QVQLVESGGGLVQAGGSLRLSCAASGRTFDLYAMGWYRQAPGKERELVAAISGRGGRTYYADSVKGRFTISRDNAKNTVYLQMNSLKPEDTAVYYCAARTGATSRIRFDYWGQGTQVTVSS | low polyreactivity
12 | QVQLVESGAGLVQAGGSRRLSCAASGFTFKSYAMGLYRQAAGKERELVAAINRSGGSTYYADSVKGRFTISRDYAMNTVYLQMNSLSPDDTAVYYCAAVKPPDYYYWGQGTQVTVSS | high polyreactivity
13 | QVQLVESGGGLVQAGGSLRLSCAASGSTFVRNAMGWYRQAPGKERELVAAIRWRSGSTYYADSVKGRFTISRDNAKNTVYFQMNSLKPEDTAVYYCAVKGLGKMNYWGQGTQVTVSS | high polyreactivity
14 | QVQLVESGGGLVQAGGSLRLSCAASGITFFGYAMGWYRQAPGKERELVAAISYSGGSTYYADSVKGRFTISRDNAKNTVYLQMNSLKPEDTAVYYCNARQAGTRYKYGYYGRYYWGQGTQVTVSS | high polyreactivity
15 | QVQLVESGGGLVQAGGSLRFSCAASGFIFRRYTMGWYRQAPGKERELVAAISITGSRTYYADSVKGRFTISRDNAKNTVYLQMNSLKPEDTAVYYCAARVWYAPKTLFGYDFDYWGQGTQVTVSS | high polyreactivity
16 | QVQLVESGGGLVQAGGSLRLSCAASGFTFLKYAMGWYRQAPGKERELVAAISWSGDSTYYADSVKGRFTISRDNAKNTVYLQMNSLKPEDTAVYYCAATYSFYGYYYWGQGTQVTVSS | high polyreactivity
17 | QVQLEESRGGLVQAGGSLRLSCAASGNIFGSNAMGWYRQAPGKERGLVAAISGSNGGTYYADSVKGRFTISRDYAKNTVYLQMNSLTPEDTAVYFCAAVWYLEDHHDYYYWGQGTQVTVSS | low polyreactivity
18 | QVQLVESGGGLVQAGGSLRLSCAASGSTFLGYAMGWYRQAPGKERELVAAITYRGTRTYYADSVKGRFTISRDYAKNTVYLQMNSLKPEDTTVYYCAADRYIGTVEYDYWGQGTQVTVSS | high polyreactivity
19 | QVQLVESGGGLVQAGGSLRLSCAASGFTFNYYAMGWYRQAPGTERELVAAITSSGGSTYYADSVKGRFTISRDNAKNTVYLLMNSLKPEDTAVYYCNAAVYDHRYIYGFDYWGQGTQVTVSS | high polyreactivity
20 | QVQLVESGGGLVQAGGSLRLSCAASGSIFYINAMGWYRQAPGKERELVAAITSDGSTYYADSVKGRFTISRDNAKNTVYLQMNSLKPEDTAVYYCAADLTSDQYLYYWYWFYSWGQGTQVTVSS | low polyreactivity
21 | QVQLVESGGGLVQAGGSLRLSCAASGITFVGNDMGWYRQAPGKERELVATISSSGTRTYYADSVKGRFTISRDNAKNTVYLQMNSLKQEDTAVYYCAARWRSYITYWFDYWGQGTQVTVSS | low polyreactivity
22 | QVQLVESAGGLVQAGGSLRLSCAASGNMLIGKVMGMYRQAPGKERELVAAITSGGDTYYADSVKGRYTISRDNAKNTVYLQMNSLKPEDTAVYYCAADRPGQPKYEYWGQCTQVTVSS | low polyreactivity

Row | Sequence | polyreactivity (PSR sort gate)
23 | QVQLVESGGGLVQAGGSLRLSCAASGSTFKANAMGWYRQAPGKERELVASIRFSAGSTYYADSVKGRFTISRDNAKNTVYLQMNSLKPEDTAVYYCAAGRHVLKRRYDYWGQGTQVTVSS | low polyreactivity
24 | QVQLVESGGGLVQAGGSLRLSCAASGFIFGTYVMGWYRQAPGKERELVAAISESGGRTYYADSVKGRFTISRDNAKNTVYLQMNSLKPEDTAVYYCNAPHHRYDWGQGTQVTVSS | high polyreactivity
25 | QVQLVESGGGLVQAGGSLRLSCAASGSTFDPNAMGWYRQARGKERELVAAISYTGGRTYYADSVKGRFTISRDNAKNTVYLQMNSLKPEDTAVYYCAVLVVGSTTQDEPYFSGVEHDYWGQGTQVTVSS | low polyreactivity
26 | QVQLVESGGGLVQAGGSLRLSCAASGITFKRYAMGWYRQAPRKERELVAAITTSGGSTYYADSVKGRFTNSRDNAKNTVYLLMNSLKPEDTAVNYCNAEDYWGKYYYWGQGTQVTVSS | low polyreactivity
27 | QDQLVESGGGLVQAGGSLRLSCAASGSTFTYNTKGWYRQAPGKERELVAAITTSGGNTYYADSVKGRFTISRDNAKNTVYLQMNSLKPVDTAVYYCAAGYSWAEGDYWGQGTQVTVSS | low polyreactivity
28 | QVQLVESGGGLVQAGGSLRLSCASSGLIFYHYAMGWYRQAPGKERELVAAISWRGGTTYYADSVKGRFTISSDNAKNTVYLQMNSLKPEDTAVYYCNALLRSPGLGYDYWGQGTQVTVSS | high polyreactivity
29 | QVQLVESGGGLVQAGGSLRLSCAASGFTFDNYAMGWYRQAPGKERELVAAINWSGGRTYYADSVKGRFTISRDNAKNTVYLQMNSLKPEDTAVYYCAVPGYVRMDYWGQGTQVTVSS | high polyreactivity
30 | QVQLVESGGGLVQAGGSLRLSCAASGFIISPYAMGWYRQAPGKERELVAAISWSGVSTYYADSVKGRFTISRDNAKNTVYLQMNSLKPEDTAVYYCATYRTVYYWGQGTQVTVSS | high polyreactivity
31 | QVQLVESGGGLVQAGGSLRLSCAASGFIFDGYTMGWYRQAPGKERELVAAISRSGGRTYYADSVKGRFTISRDNAKNTVYLQMNSLKPEDTAVYYCAVRYRQYSQTVASDYGYWGQGTQVTVSS | high polyreactivity
32 | QVQLVESGGGLVQAGGSLRLSCAASGSIFFSNAMGWYRQAPGKERELVAAITSSGASTYYADSVKGRFTISRDNAKNTVYLQMNSLKPEDTAVYYCAVVGRGKRYGYWGQGTQVTVSS | high polyreactivity
33 | QVQLVESGVGLVQAGGSLRLSCAASGIIFRSYAMGWYRQAPGKERELVAAITSSGGRTYYADSVKGRFTISRDNAKNTVYLQMNSLKPEDTAVYYCAAKTYQQQIVRPMYYWGQGTQVTVSS | high polyreactivity
34 | QVQLVESGGGLVQAGGSLRLSCAASGSIFYQNMGWYRQAPRKERELVATINRGSSTHYADSVKGRFTISRDNAKNTVYLQMNSLKPEDTAVYYCAKRSSRYRLYYWGQGTQVTVSS | high polyreactivity
35 | QVQLLESGGGLVQAGGSLRLSCAASGSTFPWYTMGWYRQAPGKERELVAPISNGGSTNYADSVKGRFTISRDNAKNTVYLQMNSLIPEDTAVYYCNARIPPYRWYQVSRGHGYWGQGTQVTVSS | high polyreactivity
36 | QVQLVESGGGLVQAGGSLRLSCAASGIIIRKYAMGWYRQAPGKERELVAAITTRGSRTYYADSVKGRFTISRDNAKNTVYLQMNSLKPEDTAVYYCAADFGYAWWWYDTYGYWGQGTQVTVSS | high polyreactivity
37 | QVQLVESGGGLVQAGGSLRLSCAASGIIFLYYAMGWYRQAPGKERELVAAISSGGSTYYADSVKGRFTISRDNAKNTVYLQMNSLKPEDTAVYYCAARPRKSRAYTALGDYWGQGTQVTVSS | high polyreactivity
38 | QVQLVESGGGLVQAGGSLRLNCAASGRTLVLYVMGWYRQAPGKERELVAAISRSGGRTYYADSVKGRFTISRDNAKNTVYLQMNSLKPEDTAVYYCAAYTSYASDYWGQGTLVTVSS | high polyreactivity
39 | QVQLVESGGGLVQAGGSLRLICAASGLIFYRYAMGWYRPEPGKERELVAVISRGGSTFYADSVKGRFTISRDNAKNTVYLQMNSLTPEDTAVYFCAAAQTSQAYRYWYYYWGQGTQVTVSW | high polyreactivity
40 | QVQLVESGGGLVQAGGSLRLSCPASGSIFDLYAMGWYRQAPGKERELVASIRYSGGRTYYADSVKGRFTISRDNAKNTVYLQMNSLKPEDTAVYYCNRDGGYTFIMDYWGQGNQVTVSS | low polyreactivity
41 | QVQLVESGGGLVQAGGSLRLSCAASGIIFSGYVMGWYRQAPGKERELVAAISSGGSTYYADSVKGRFTISRDNAKNTVYLQMNSLKPEDTAVYYCAAAGYWTLGYGYWGQGTQVTVSS | low polyreactivity
42 | QVQLVESGGGLVQAGGSLRLSCASSGSTFYYYAMGWYRPAPGKERELVAAITKSGGSTYYADSVKGRFTISRDNAKNTVYLQMNSLKPEVTAVYYCAAYLRSGYKFDYWGQGTQVTVSS | low polyreactivity
43 | QVQLVESGGGLVQAGGSLRLSCAASGSTFGGYSMGWYRQAPGKERELVAAITYSGGSTYYADSVKGRFTISGDIAQNTVYLQMKSLKPEDTAFYYCNADDDDALPWWWPYVLDVDYWGQGTQVTVSS | low polyreactivity
